Results published in article PMC9324360.

How the values were obtained:
Assay in all cases: MST
Details in all cases: 0.5 mM Mg2+; MST: 10 mM Tris-HCl pH 8.5, 0.5 mM MgSO4, 50 mM KCl, 10 mM (NH4)2SO4, 0.05% Tween 20; 1 nM oligo; 10 min at 55 °C, measured at 25 °C
[1] = test system: Tt72 DNA polymerase WT (Thermus thermophilus MAT72 phage vB_Tt72)
[2] = test system: Tt72 pol D78A (exo-) (Thermus thermophilus MAT72 phage vB_Tt72)
[3] = test system: Tt72 pol Y180A (Thermus thermophilus MAT72 phage vB_Tt72)
[4] = test system: Tt72 pol D184A (Thermus thermophilus MAT72 phage vB_Tt72)
[5] = test system: Tt72 pol D78A/E389A (Thermus thermophilus MAT72 phage vB_Tt72)
[6] = test system: Tt72 pol L27A (Thermus thermophilus MAT72 phage vB_Tt72)
[7] = test system: Tt72 pol D78A/D384A (Thermus thermophilus MAT72 phage vB_Tt72)
[8] = test system: Tt72 pol E17A (Thermus thermophilus MAT72 phage vB_Tt72)
[9] = test system: Tt72 pol D78A/S616A (Thermus thermophilus MAT72 phage vB_Tt72)
[10] = test system: Tt72 pol D15A (Thermus thermophilus MAT72 phage vB_Tt72)
[11] = test system: Tt72 pol D78A/D615A (Thermus thermophilus MAT72 phage vB_Tt72)

TGGCTGCTTCTAAGCCAACATCCT / CTAGTGAGGATGTTGGCTTAGAAGCAGCCA [polTt72-Cy5/polTt72-long primer/template]
Kd [1]: 0.002 µM
Kd [2]: 0.109 µM
Kd [3]: 0.229 µM
Kd [4]: 0.144 µM
Kd [5]: 0.068 µM
Kd [6]: 0.032 µM
Kd [7]: 0.1 µM
Kd [8]: 0.529 µM
Kd [9]: 0.129 µM
Kd [10]: 0.232 µM
Kd [11]: 0.078 µM
